Measurements reported in patent US20220133913A1 (KOREA BASIC SCIENCE INSTITUTE, published 2022).

Experiments:
[1] = target: T1, human αvβ3 integrin ITGAVB3 (human, UniProt P06756 31-992; P05106 27-718, limits assumed); experiment: phage ELISA, coated ITGAVB3, anti-M13-HRP, 490 nm; helper phage control
T1 construct: Recombinant heterodimer used as immunogen, ELISA coating and SPR ligand; also called A5B3; A5b3

[2] = target: T1, human αvβ3 integrin ITGAVB3; experiment: ELISA of soluble VHH, induced at 30 C; coating not given
[3] = target: T1, human αvβ3 integrin ITGAVB3; experiment: phage ELISA, coated ITGAVB3, anti-M13-HRP, 490 nm
Experimental: Further, in order to perform phage ELISA, 2.5 μg/mL to […] of a target protein and a control protein were coated at 4 degrees C. using a coating buffer, and the wells were washed 3 times with 200 μL washing buffer per well. The wells were blocked with 200 μL PBS-M for two hours at room temperature. The blocking buffer was removed and the plate was washed 6 times with the washing solution. Thereafter, 100 μL of phage solution was added to the washing buffer per well and incubation was executed at room temperature for 1 to 2 hours. Then, washing was performed 6 times with washing buffer. HRP-binding anti-M13 antibody (GE healthcare) was diluted with 1:5,000 blocking buffer. 100 μL of diluted conjugate was added onto each well, and incubation was performed at room temperature for 1 hour, and washing was carried out 6 times with washing buffer. The HRP substrate solution was prepared as follows: A stock solution of OPD was prepared by dissolving 22 mg OPD (Sigma) in 100 mL of […] sodium citrate (pH 4.0), and 36 μL 30% H₂O₂ was added to 21 mL of OPL stock solution immediately before the detection step. 100 μL of substrate solution was added to each well and incubation was performed for 30 minutes at room temperature. Plates were analyzed using a micro plate reader set at 490 nm.

[4] = target: T1, human αvβ3 integrin ITGAVB3; experiment: ELISA of soluble VHH, induced at 37 C; coating not given
[5] = target: T1, human αvβ3 integrin ITGAVB3; experiment: ELISA of soluble VHH (TG1 lysate), induced at 30 C, coated ITGAVB3
[6] = target: T1, human αvβ3 integrin ITGAVB3; experiment: ELISA of soluble VHH (TG1 lysate), induced at 37 C, coated ITGAVB3
[7] = target: T1, human αvβ3 integrin ITGAVB3; experiment: SPR, αvβ3 integrin immobilised on a CMDH chip (Reichert SR7500DC), nanobody as analyte; fitted kd from the table box in the panel; the box prints no unit, s^-1 is from the head of Table 8, where the text prints this cell as 8.02(2)e4
Experimental: (§1) Specifically, a CMDH chip (Carboxymethyl Dextran Hydrogel Surface Sensor Chip, Reichert Technologies) coated with Dextran was mounted on an SPR equipment (Reichert SR7500DC system) to perform immobilization of αᵥβ₃ integrin antigen. Then, an analysis of the affinity of the selected antibody based on the concentration was performed.

[8] = target: T1, human αvβ3 integrin ITGAVB3; experiment: SPR, αvβ3 integrin immobilised on CMDH chip, nanobody as analyte
Experimental: as §1

T1 sequence (P06756 31-992 limits assumed, chain 1 of 2): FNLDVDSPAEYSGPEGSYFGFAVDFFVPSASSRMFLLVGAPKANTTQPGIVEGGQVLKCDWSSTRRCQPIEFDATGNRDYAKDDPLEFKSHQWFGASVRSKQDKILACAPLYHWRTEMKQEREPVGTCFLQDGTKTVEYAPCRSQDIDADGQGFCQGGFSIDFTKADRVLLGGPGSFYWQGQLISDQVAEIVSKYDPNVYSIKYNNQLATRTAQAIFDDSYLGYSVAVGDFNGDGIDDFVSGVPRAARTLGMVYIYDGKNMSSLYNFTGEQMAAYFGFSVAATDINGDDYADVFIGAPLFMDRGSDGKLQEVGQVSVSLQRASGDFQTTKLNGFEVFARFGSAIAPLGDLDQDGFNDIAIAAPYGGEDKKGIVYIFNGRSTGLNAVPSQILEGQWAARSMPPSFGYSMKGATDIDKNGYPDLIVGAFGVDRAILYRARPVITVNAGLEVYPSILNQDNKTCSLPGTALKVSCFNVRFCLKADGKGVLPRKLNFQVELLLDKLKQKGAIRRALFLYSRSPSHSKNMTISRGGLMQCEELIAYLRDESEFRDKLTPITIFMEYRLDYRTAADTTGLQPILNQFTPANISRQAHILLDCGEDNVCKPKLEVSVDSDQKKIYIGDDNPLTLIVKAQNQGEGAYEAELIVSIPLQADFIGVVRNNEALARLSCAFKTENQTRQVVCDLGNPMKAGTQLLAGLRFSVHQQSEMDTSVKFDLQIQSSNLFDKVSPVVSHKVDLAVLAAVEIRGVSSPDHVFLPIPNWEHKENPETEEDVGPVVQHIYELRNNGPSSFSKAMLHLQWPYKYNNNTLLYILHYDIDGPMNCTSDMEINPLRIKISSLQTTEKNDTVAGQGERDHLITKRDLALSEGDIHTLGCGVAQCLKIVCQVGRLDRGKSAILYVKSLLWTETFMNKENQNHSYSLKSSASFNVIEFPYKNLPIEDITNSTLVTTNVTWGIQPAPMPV
T1 sequence (P05106 27-718 limits assumed, chain 2 of 2): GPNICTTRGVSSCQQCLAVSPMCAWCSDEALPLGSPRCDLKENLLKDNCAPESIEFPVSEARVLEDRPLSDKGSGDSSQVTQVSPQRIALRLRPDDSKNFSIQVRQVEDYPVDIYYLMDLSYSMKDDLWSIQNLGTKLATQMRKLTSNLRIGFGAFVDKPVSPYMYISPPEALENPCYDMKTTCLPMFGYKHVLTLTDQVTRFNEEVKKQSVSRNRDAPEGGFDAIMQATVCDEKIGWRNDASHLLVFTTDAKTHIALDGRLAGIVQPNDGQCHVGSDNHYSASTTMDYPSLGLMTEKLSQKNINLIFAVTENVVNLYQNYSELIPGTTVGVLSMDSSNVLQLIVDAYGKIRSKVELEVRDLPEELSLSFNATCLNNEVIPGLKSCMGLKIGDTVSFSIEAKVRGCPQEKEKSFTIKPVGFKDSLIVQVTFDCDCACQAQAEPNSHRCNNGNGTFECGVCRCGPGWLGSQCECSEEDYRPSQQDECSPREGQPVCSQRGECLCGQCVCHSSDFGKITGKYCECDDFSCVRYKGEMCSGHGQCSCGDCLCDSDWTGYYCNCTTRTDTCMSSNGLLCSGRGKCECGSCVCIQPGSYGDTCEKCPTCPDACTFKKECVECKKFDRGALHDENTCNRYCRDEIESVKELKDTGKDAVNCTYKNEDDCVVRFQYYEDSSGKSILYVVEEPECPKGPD

For M13KO7 helper phage, the OD490 [1] was 0.09.

B1: VHH-23 (VHH)
VHH: HVQLVESGGGSVQTGGSLRLSCAASGYTSSTVYMAWFRQTPGKQREGVAAIYTGGGPTYYADSVKGRFTISQDNAKNTVYLQMNTLKPEDTAMYYCAADRYVYRLVTNWYRPSFYTYWGQGTQVTVSS
notes: also called clone 23
In the case of B1, the OD490 [2] is reported as 0.141, the OD490 [3] is reported as 2.04 and the OD490 [4] is reported as 0.113. The OD490 [5] was 0.179 and the OD490 [6] was 0.16.

B2: VHH-16 (VHH)
VHH: DVQLVESGGGSVQPGGSLRLSCAASGYTVENSCMAWFRQAPGKEREVVATIVTNNATGTFYADSVKGRFTVSQDNAKNTLNLQMNSLEPEDTAMYYCAADTKWIVCSRGYRYTPNWANQFKYWGQGTQVTVSS
notes: also called clone 16
B2 showed an OD490 [2] of 2.02, an OD490 [3] of 2.07 and an OD490 [4] of 1.02. The OD490 [5] was 1.75 and the OD490 [6] was 1.68.

B3: VHH-20 (VHH)
VHH: DVQLVESGGGSVQPGGSLRLSCAASGYTVDNSCMAWFRQAPGKEREVVATIVTNNATSTFYADSVKGRFTVSHDNAKNTLNLQMNTLEPEDTAMYYCAADTKWIVCSRGYRYTPNWANHFNYWGQGTLVTVSS
notes: also called clone 20
Work on B3 yielded an OD490 [2] of 0.108, an OD490 [3] of 1.98 and an OD490 [4] of 0.111. The OD490 [5] was 0.129 and the OD490 [6] was 0.144.

B4: VHH-11 (VHH)
VHH: DVQLVESGGGSVQPGESLRLSCVASGYTVSSSCMAWFRQAPGKEREVVATIVVTSDTTSTFYADSVKGRFTISPDNAKNTLNLQMNSLEPSDTAMYYCAADRKWNVCSRGYRYTPNWANQFTFWGQGTLVTVSS
notes: also called clone 11
Work on B4 yielded an OD490 [2] of 0.148, an OD490 [3] of 2.07 and an OD490 [4] of 0.119. It also gave an OD490 [5] of 0.334 and an OD490 [6] of 0.64.

B5: VHH-15 (VHH)
VHH: EVQLVESGGGSVQPGESLRLSCVASGYTVSSSCMAWFRQAPGKEREVVATIVVTSDTTSTFYADSVKGRFTISPDNAKNTLNLQMNSLEPPDTAMYYCAADRKWNVCSRGYRYTPNWANQFTFWGQGTQVTVSS
notes: also called clone 15
In the case of B5, the OD490 [2] is reported as 0.146, the OD490 [3] is reported as 1.97 and the OD490 [4] is reported as 0.121. For the same molecule, the OD490 [5] was 0.179 and the OD490 [6] was 0.132.

B6: VHH-17 (VHH)
VHH: DVQLVESGGGSVQPGESLRLSCVASGYTVSSSCMAWFRQAPGKEREVVATIVVTSDTTSTFYADSVKGRFTISPDNAKNTLNLQMNSLEPSDTAMYYCAADRKWNVCSRGYRYTPNWANQFTFWGQGTLVTVSS
notes: also called clone 17
With B6 the OD490 [2] was 0.118, the OD490 [3] was 1.81 and the OD490 [4] was 0.125. It also gave an OD490 [5] of 0.243 and an OD490 [6] of 0.191.

B7: VHH-13 (VHH)
VHH: HVQLVESGGGSVQPGESLRLSCVASGYTVSSSCMAWFRQAPGKEREVVATIVVTSDTTSTFYADSVKGRFTISPDNAKNTLNLQMNSLEPSDTAMYYCAADRKWNVCSRGYRYTPNWANQFTFWGQGTQVTVSS
notes: also called clone 13
In the case of B7, the OD490 [2] is reported as 0.161, the OD490 [3] is reported as 2.01 and the OD490 [4] is reported as 0.187. The OD490 [5] was 2 and the OD490 [6] was 2.

B8: single-domain antibody VHH-25 containing lysin and His6 tags (VHH)
VHH: EVQLVESGGGSVQAGGSLRLSCVVSGYTCSVYDMIWYRQPPGKEREFVSLINSNGRTTYADSVKGRFTISQNNAKNTVYLQMNSLKPEDTAMYYCHAACYSPSRLNYWGQGTQVTVSS
notes: also called Nanobody #25-Lys; VHH-25-K1; not shown: C-terminal lysine tag and His6 tag with any linker
B8 gave a koff [7] of 0.000802 s⁻¹, a Kd [8] of 4.64 nM and a koff [8] of 0.000802 s⁻¹. The kon [8] was 173000 M⁻¹ s⁻¹.

B9: VHH-25 (VHH)
VHH: EVQLVESGGGSVQAGGSLRLSCVVSGYTCSVYDMIWYRQPPGKEREFVSLINSNGRTTYADSVKGRFTISQNNAKNTVYLQMNSLKPEDTAMYYCHAACYSPSRLNYWGQGTQVTVSS
notes: also called clone 25
Molecule B9 has an OD490 [2] of 1.05, an OD490 [3] of 2.03 and an OD490 [4] of 0.193. The OD490 [5] was 2.01 and the OD490 [6] was 2.03.

B10: VHH-22 (VHH)
VHH: QVQLVESGGGSVQAGGSLRLSCVVSGYTCSVYDMIWYRQPPGKEREFVSLINSNGRTTYADSVKGRFTISQNNAKNTVYLQMNSLKPEDTAMYYCHAACYSPSRLNYWGQGTLVTVSS
notes: also called clone 22
B10 was tested, and the OD490 [2] was 1.21, the OD490 [3] was 2.04 and the OD490 [4] was 0.386. For the same molecule, the OD490 [5] was 1.98 and the OD490 [6] was 1.98.
